Assay results from patent US20130237472A1.

How the values were obtained:
TNF-α [1] = assay: competition ELISA against plate-bound TNFRI190; relative affinity from IC50
TNF-α [2] = assay: cell-based or functional assay

| Result Affinity (%) relative to wild-type TNFRI126 (TNF-α [1]) [%] | Relative activity (cell based assay) (Folds) (TNF-α [2]) [fold] | Substance |
| --- | --- | --- |
| 100 | – | Met-TNFRI126 (from UniProt P19438 41-166) (receptor) |
| – | 1 | Met-TNFRI171 (from UniProt P19438 41-211) (receptor) |
